Assay results from publication PMC3077074.

Biological target: Helicobacter hepaticus Group III 2/2 hemoglobin (Hh Hb), wild type (Helicobacter hepaticus ATCC51449)
Test: NMR 15N relaxation

stoichiometry N: > 2
Substance: Helicobacter hepaticus Group III 2/2 hemoglobin (Hh Hb), wild type (natural protein)
